The source of these data is article PMC12162048 (Blood Vessels, Thrombosis & Hemostasis, 2024).

Assay [1] concerns the target T1, protein S, purified, P07225.
T1 chain: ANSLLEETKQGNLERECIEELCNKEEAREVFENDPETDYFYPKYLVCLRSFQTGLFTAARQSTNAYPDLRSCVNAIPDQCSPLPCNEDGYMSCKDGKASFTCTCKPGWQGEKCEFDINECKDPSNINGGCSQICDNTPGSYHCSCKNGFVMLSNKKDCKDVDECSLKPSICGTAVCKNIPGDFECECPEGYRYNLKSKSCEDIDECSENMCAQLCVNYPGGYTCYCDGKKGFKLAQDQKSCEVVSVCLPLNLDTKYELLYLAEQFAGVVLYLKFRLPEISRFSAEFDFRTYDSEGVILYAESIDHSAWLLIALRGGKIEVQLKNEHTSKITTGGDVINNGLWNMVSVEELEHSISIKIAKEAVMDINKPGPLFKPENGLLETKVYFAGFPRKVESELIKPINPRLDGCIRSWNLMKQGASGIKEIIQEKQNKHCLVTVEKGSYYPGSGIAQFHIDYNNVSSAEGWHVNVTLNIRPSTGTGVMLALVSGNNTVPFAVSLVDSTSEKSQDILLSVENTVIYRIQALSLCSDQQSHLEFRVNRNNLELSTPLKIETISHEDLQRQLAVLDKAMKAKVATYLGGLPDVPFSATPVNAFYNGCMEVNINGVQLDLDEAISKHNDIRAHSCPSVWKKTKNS
Put plainly: native gel or EMSA. To be noted: remark: other sources report otherwise.

Assay [2] has as its target von Willebrand factor of plasma (human (endogenous in plasma), UniProt P04275 764-2813). Kind of assay: ELISA. A general note: In an ELISA, binding on a coated surface is turned into a signal by an enzyme label.

By stoichiometry N is commonly meant the number of molecules, sites or subunits per partner or assembly.

B1: protein S, purified, P07225 42-676 (natural protein)
chain: T1 chain
In assay [1], B1 gave a stoichiometry N of 2.

B2: biotinylated protein S (natural protein)
chain: T1 chain
modifications: biotin (biotinylated, sites not stated)
In the case of B2, the “fold change of the apparent interaction with MerTK against without MerTK” value in assay [2] was approximately 2 fold.
